Data as given in patent US20240016931A1 (JIANGSU HENGRUI PHARMACEUTICALS, published 2024).
Numbering of substitutions follows the chain as printed. Names may count otherwise.

B1: hu119-20 (antibody, human IgG1, kappa)
heavy: EAQLVQSGAEVKKPGSSVKVSCKASGFTFSTYNMHWVRQAPGQGLEWIGAIYPGNGETSYNQKFKDRATLTVDKSTSTAYMELSSLRSEDTAVYYCAREDDYGEGYFDVWGQGTTVTVSSASTKGPSVFPLAPSSKSTSGGTAALGCLVKDYFPEPVTVSWNSGALTSGVHTFPAVLQSSGLYSLSSVVTVPSSSLGTQTYICNVNHKPSNTKVDKKVEPKSCDKTHTCPPCPAPELLGGPSVFLFPPKPKDTLYITREPEVTCVVVDVSHEDPEVKFNWYVDGVEVHNAKTKPREEQYNSTYRVVSVLTVLHQDWLNGKEYKCKVSNKALPAPIEKTISKAKGQPREPQVYTLPPSRDELTKNQVSLTCLVKGFYPSDIAVEWESNGQPENNYKTTPPVLDSDGSFFLYSKLTVDKSRWQQGNVFSCSVMHEALHNHYTQKSLSLSPGK
light: EIVLTQSPATLSLSPGERATLSCRASESVDNSGLSFMHWYQQKPGQPPRLLLYRASNLGSGIPARFSGSGSGTDFTLTISSLEPEDFAVYYCQQINTDPLTFGQGTKLEIKRTVAAPSVFIFPPSDEQLKSGTASVVCLLNNFYPREAKVQWKVDNALQSGNSQESVTEQDSKDSTYSLSSTLTLSKADYEKHKVYACEVTHQGLSSPVTKSFNRGEC
notes: IgG1-YTE, kappa
B2: hu119-21 (antibody, human IgG1, kappa)
heavy: B1 heavy with A2V, F27G, S77R
light: B1 light
notes: IgG1-YTE, kappa
B3: hu119-15 (antibody, human IgG1, kappa, V domains shown)
VH: EAQLVQSGAEVKKPGSSVKVSCKASGFTFSTYNMHWVRQAPGQGLEWIGAIYPGNGETSYNQKFKDRATLTVDKSTSTAYMELSSLRSEDTAVYYCAREDDYGEGYFDVWGQGTTVTVSS
VL: EIVLTQSPATLSLSPGERATLSCRASESVDNSGLSFMHWYQQKPGQAPRLLIYRASNLGSGIPARFSGSGSGTDFTLTISSLEPEDFAVYYCQQINTDPLTFGQGTKLEIKR
notes: IgG1-YTE, kappa
B4: hu119-19 (antibody, human IgG1, kappa)
heavy: B1 heavy with A2V, F27G
light: B1 light
notes: IgG1-YTE, kappa
B5: hu119-22 (antibody, human IgG1, kappa)
heavy: B1 heavy with S77R
light: B1 light
notes: IgG1-YTE, kappa
B6: hu119-16 (antibody, human IgG1, kappa, V domains shown)
VH: B3 VH with A2V, F27G, S77R
VL: B3 VL
notes: IgG1-YTE, kappa
B7: hu119-17 (antibody, human IgG1, kappa, V domains shown)
VH: B3 VH with S77R
VL: B3 VL
notes: IgG1-YTE, kappa
B8: hu119-14 (antibody, human IgG1, kappa, V domains shown)
VH: B3 VH with A2V, F27G
VL: B3 VL
notes: IgG1-YTE, kappa
B9: hu179-09 (antibody, human IgG1, kappa)
heavy: EVQLVQSGAEVKKPGSSVKVSCKASGYTFSNYLIEWVRQAPGQGLEWIGVIDPGNGDTNYNENFKGRATLTADKSTSTAYIELSSLRSEDTAVYYCAREDNTGTAFDYWGQGTTVTVSSASTKGPSVFPLAPSSKSTSGGTAALGCLVKDYFPEPVTVSWNSGALTSGVHTFPAVLQSSGLYSLSSVVTVPSSSLGTQTYICNVNHKPSNTKVDKKVEPKSCDKTHTCPPCPAPELLGGPSVFLFPPKPKDTLYITREPEVTCVVVDVSHEDPEVKFNWYVDGVEVHNAKTKPREEQYNSTYRVVSVLTVLHQDWLNGKEYKCKVSNKALPAPIEKTISKAKGQPREPQVYTLPPSRDELTKNQVSLTCLVKGFYPSDIAVEWESNGQPENNYKTTPPVLDSDGSFFLYSKLTVDKSRWQQGNVFSCSVMHEALHNHYTQKSLSLSPGK
light: SIVMTQTPLSLSVTPGQPASISCKASQSVSSDVTWYLQKPGQSPQLLIYYVSNHYTGVPDRFSGSGSGTDFTLKISRVEAEDVGVYYCQQHHRFPLTFGQGTKLEIKRTVAAPSVFIFPPSDEQLKSGTASVVCLLNNFYPREAKVQWKVDNALQSGNSQESVTEQDSKDSTYSLSSTLTLSKADYEKHKVYACEVTHQGLSSPVTKSFNRGEC
notes: IgG1-YTE, kappa
B10: hu179-11 (antibody, human IgG1, kappa, V domains shown)
VH: EVQLVQSGAEVKKPGSSVKVSCKASGYTFSNYLIEWVRQAPGQGLEWIGVIDPGNGDTNYNENFKGRATLTADKSTSTAYIELSSLRSEDTAVYYCAREDNTGTAFDYWGQGTTVTVSS
VL: SIVMTQTPLSLSVTPGQPASISCKASQSVSSDVTWYLQKPGQSPQLLIYYVSNHYTGVPDRFSGSGYGTDFTLKISRVEAEDVGVYYCQQHHRFPLTFGQGTKLEIKR
notes: IgG1-YTE, kappa
B11: hu179-08 (antibody, human IgG1, kappa)
heavy: B9 heavy
light: B9 light with S1D
notes: IgG1-YTE, kappa
B12: hu179-16 (antibody, human IgG1, kappa)
heavy: B9 heavy with T28A, I81M
light: B9 light with S1D
notes: IgG1-YTE, kappa
B13: hu179-18 (antibody, human IgG1, kappa, V domains shown)
VH: B10 VH with T28A, I81M
VL: B10 VL with Y67S, L73F
notes: IgG1-YTE, kappa
B14: hu179-17 (antibody, human IgG1, kappa)
heavy: B9 heavy with T28A, I81M
light: B9 light
notes: IgG1-YTE, kappa
B15: hu179-10 (antibody, human IgG1, kappa, V domains shown)
VH: B10 VH
VL: B10 VL with Y67S, L73F
notes: IgG1-YTE, kappa
B16: hu179-19 (antibody, human IgG1, kappa, V domains shown)
VH: B10 VH with T28A, I81M
VL: B10 VL
notes: IgG1-YTE, kappa
B17: hu3-06 (antibody, human IgG1, kappa, V domains shown)
VH: EVQLVQSGAEVKKPGASVKVSCKASGYTFTDDYMNWVRQAPGQRLEWMGIISPYNGGTSYNQKFKGRVTLTVDKSASTAYMELSSLRSEDTAVYYCAREDYDYDGYAMDHWGQGTTVTVSS
VL: EIVLTQSPATLSLSPGERATLSCRASSSVSYMHWYQQKPGQAPRPWIYATSNLASGVPARFSGSGSGTDYTLTISRLEPEDFAVYYCQQWSSNRTFGGGTKVEIKR
notes: IgG1-YTE, kappa
B18: hu3-07 (antibody, human IgG1, kappa, V domains shown)
VH: B17 VH
VL: B17 VL with D69S
notes: IgG1-YTE, kappa
B19: hu3-08 (antibody, human IgG1, kappa, V domains shown)
VH: B17 VH with R38K, M48I, V68A
VL: B17 VL with W46L, V57I
notes: IgG1-YTE, kappa
B20: hu3-05 (antibody, human IgG1, kappa, V domains shown)
VH: B17 VH
VL: B17 VL with W46L, V57I
notes: IgG1-YTE, kappa
B21: hu3-04 (antibody, human IgG1, kappa, V domains shown)
VH: B17 VH
VL: B17 VL with P45L, W46L, V57I, Y70F
notes: IgG1-YTE, kappa
B22: hu3-01 (antibody, human IgG1, kappa, V domains shown)
VH: B17 VH with L70I, V72R, K74T
VL: B17 VL with W46L, V57I
notes: IgG1-YTE, kappa
B23: hu3-09 (antibody, human IgG1, kappa, V domains shown)
VH: B17 VH with R38K, M48I, V68A
VL: B17 VL
notes: IgG1-YTE, kappa
B24: hu3-02 (antibody, human IgG1, kappa, V domains shown)
VH: B17 VH with L70I, V72R, K74T
VL: B17 VL
notes: IgG1-YTE, kappa
B25: hu3-03 (antibody, human IgG1, kappa, V domains shown)
VH: B17 VH with L70I, V72R, K74T
VL: B17 VL with D69S
notes: IgG1-YTE, kappa
B26: hu3-10 (antibody, human IgG1, kappa, V domains shown)
VH: B17 VH with R38K, M48I, V68A
VL: B17 VL with D69S
notes: IgG1-YTE, kappa
B27: hu3-12 (antibody, human IgG1, kappa, V domains shown)
VH: B17 VH with H110Y
VL: B17 VL with D69S, W90S, S91D, S92N, N93V, T95G
notes: IgG1-YTE, kappa; also called hu3VH2-H110Y + hu3VL5

Each binder was assayed against T1, His-tagged human TSLP antigen (huTSLP-his) (human) (assay: ELISA, coated huTSLP-his;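 note: binding of antibodies to plate-bound TSLP read as absorbance at 450 nm after TMB colour development, EC50 derived from binding curves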).
T1 construct: Secreted from HEK293E and purified on nickel; whole entry named; also called Human TSLP-his
Method: The plate was incubated at 4° C. overnight. After the liquid was discarded, 5% skim milk (skim milk powder from Brightdairy) blocking solution diluted with PBS was added at 200 μL/well, and the plate was incubated in an incubator at 37° C. for 2 h for blocking. After the blocking, the blocking solution was discarded, and the plate was washed 3 times with a PBST buffer (PBS containing 0.1% (v/v) tween-20, pH 7.4). […] After the incubation, the plate was washed 3 times with PBST. […] After the plate was washed 6 times with PBST, a TMB chromogenic substrate (KPL, 52-00-03) was added at 50 μL/well, and the plate was incubated at room temperature for 10-15 min. Then, 1 M H₂SO₄ was added at 50 μL/well to stop the reaction. The absorbance at 450 nm was read with a NOVOStar microplate reader, and the EC₅₀ values for the binding of the TSLP antibodies to TSLP were calculated.
In the case of B1, the EC50 is reported as 0.341 nM. Work on B2 yielded an EC50 of 0.399 nM. In the case of B3, the EC50 is reported as 0.35 nM. For B4, the EC50 was 0.353 nM. In the case of B5, the EC50 is reported as 0.351 nM. For B6, the EC50 was 0.366 nM. B7 gave an EC50 of 0.351 nM. For B8, the EC50 was 0.345 nM. B9 showed an EC50 of 0.157 nM. Work on B10 yielded an EC50 of 0.137 nM. B11 was tested, and the EC50 was 0.162 nM. With B12 the EC50 was 0.229 nM. In the case of B13, the EC50 is reported as 0.246 nM. Binder B14 has an EC50 of 0.218 nM. Binder B15 has an EC50 of 0.19 nM. In the case of B16, the EC50 is reported as 0.162 nM. B17 showed an EC50 of 0.594 nM. Binder B18 has an EC50 of 0.385 nM. Binder B19 has an EC50 of 0.469 nM. B20 showed an EC50 of 0.517 nM. With B21 the EC50 was 0.435 nM. For B22, the EC50 was 0.849 nM. B23 was tested, and the EC50 was 0.494 nM. B24 was tested, and the EC50 was 0.628 nM. Binder B25 has an EC50 of 0.554 nM. B26 gave an EC50 of 0.388 nM. B27 showed an EC50 of 0.152 nM.
